Data published in patent US20030198957.

Substance: human NOV8 (EDSP, Endothelial Dual Specificity Phosphatase domain-containing protein)
- in vitro phosphorylation (dephosphorylation) assay (ERK): can dephosphorylate ERK and JNK
- in vitro phosphorylation (dephosphorylation) assay (P38 MAP kinase): has little activity on P38 MAP kinase
- in vitro phosphorylation (dephosphorylation) assay (JNK): can dephosphorylate ERK and JNK
